Reference: article PMC6856136, “Topological DNA-binding of structural maintenance of chromosomes-like RecN promotes DNA double-strand break repair in Escherichia coli” (Communications Biology, 2019)

Biological target: the molecule itself
Experiment: SEC; gel filtration chromatography of purified His-RecN; single peak at a position indicating 308 kDa; column and buffer not told in the methods shown

B1: N-terminally hexahistidine-fused RecN (His-RecN), Escherichia coli (natural protein, E. coli, UniProt P05824 1-553, looked up)
chain: MLAQLTISNFAIVRELEIDFHSGMTVITGETGAGKSIAIDALGLCLGGRAEADMVRTGAARADLCARFSLKDTPAALRWLEENQLEDGHECLLRRVISSDGRSRGFINGTAVPLSQLRELGQLLIQIHGQHAHQLLTKPEHQKFLLDGYANETSLLQEMTARYQLWHQSCRDLAHHQQLSQERAARAELLQYQLKELNEFNPQPGEFEQIDEEYKRLANSGQLLTTSQNALALMADGEDANLQSQLYTAKQLVSELIGMDSKLSGVLDMLEEATIQIAEASDELRHYCDRLDLDPNRLFELEQRISKQISLARKHHVSPEALPQYYQSLLEEQQQLDDQADSQETLALAVTKHHQQALEIARALHQQRQQYAEELAQLITDSMHALSMPHGQFTIDVKFDEHHLGADGADRIEFRVTTNPGQPMQPIAKVASGGELSRIALAIQVITARKMETPALIFDEVDVGISGPTAAVVGKLLRQLGESTQVMCVTHLPQVAGCGHQHYFVSKETDGAMTETHMQSLNKKARLQELARLLGGSEVTRNTLANAKELLAA
notes: RecN, Escherichia coli; a fragment containing the recN gene from the pRecN plasmid cloned into pET15b; Copies: by gel filtration 'a homo-oligomeric complex, most likely a tetramer' (308 kDa); the discussion speaks of multimers larger than tetramers. pET15b may add linker residues between the His tag and RecN (surmised); also called E. coli RecN; source: E. coli BL21 (DE3), pET15b derivative, …
Q: B1 was tested. Which “stoichiometry N” value did it give?
A: ~4
